Data from patent US20120277143A1.
Residue numbers refer to the chain shown, from its start.

B1: 7H3 (designed binder, part only; not given: N-cap, C-cap, His tag, part only)
chain, part: TDMYGSTPLHLAARHGHLEIVEVLLKYGADVNAFDFIGDTPLHLAAYRGHLEIVEVLLKYGVDVNADDHYGDTPLHLAASMGHLEIVEVLLKNGADVNA
B2: 5D2 (designed binder, part only; not given: N-cap, C-cap, His tag, part only)
chain, part: B1 chain, part with T1K, M3L, Y4F, Y27N, F34E
B3: 5D3 (designed binder, part only; not given: N-cap, C-cap, His tag, part only)
chain, part: B1 chain, part with T1W, M3S, H15E, F34K, F36M

Molecular target: human IL13 (human) (UniProt P35225)
Assay: cell-based or functional assay

Chain of human IL13 (human) (P35225 other isoform, or with tags, fused parts or gaps limits assumed): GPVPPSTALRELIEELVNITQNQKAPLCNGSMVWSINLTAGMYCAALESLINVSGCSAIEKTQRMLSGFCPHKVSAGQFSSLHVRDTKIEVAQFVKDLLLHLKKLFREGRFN

| STAT6 Phospho IC50 [nM] | TARC expression IC50 [nM] | Binder |
| --- | --- | --- |
| 0.0253 | 0.0696 | B1 |
| 0.0203 | 0.0714 | B2 |
| 0.0169 | 0.0883 | B3 |

Molecular target: cyno IL13 (cynomolgus monkey) (UniProt Q0PW92)
Assay: cell-based or functional assay

Chain of cyno IL13 (cynomolgus monkey) (Q0PW92 entry or part of it): as the sequence (P35225 other isoform, or with tags, fused parts or gaps limits assumed) above, with G1S, R10K, M42V, S67N, H83R, L100V, R110Q counted along it

| Cyno IL13 STAT6 IC50 [nM] | Binder |
| --- | --- |
| 0.388 | B1 |
| 0.224 | B2 |
| 3.02 | B3 |

Molecular target: human IL13 R130Q (human) (UniProt P35225)
Assay: Luminex competition, 80 pM biotin-IL13 R130Q binding to IL13Ra2-Fc beads

Chain of human IL13 R130Q (human) (P35225 35-146 limits assumed, stated change not applied): as the sequence (P35225 other isoform, or with tags, fused parts or gaps limits assumed) above, with R110Q counted along it

| IC50 [nM] | Binder |
| --- | --- |
| 0.0669 | B1 |
| 0.0322 | B2 |
| 0.0375 | B3 |

Molecular target: human IL13 (human) (UniProt P35225)
Assay: SPR BIAcore, biotin-IL13 on SA chip, global fit

| Kd [nM] | koff [s⁻¹] | kon [M⁻¹ s⁻¹] | Binder |
| --- | --- | --- | --- |
| 0.131 | 0.00056 | 4.26e+06 | B1 |
| 0.145 | 0.000218 | 1.51e+06 | B2 |
| 0.164 | 0.000144 | 877000 | B3 |
